{
  "source": "paper PMC8833744",
  "about": "“Strategic Decoy Peptides Interfere with MSI1/AGO2 Interaction to Elicit Tumor Suppression Effects” (Cancers, 2022)",
  "molecular_target": "recombinant His-tagged AGO2 (UniProt Q9UKV8)",
  "sequence (Q9UKV8 whole entry)": "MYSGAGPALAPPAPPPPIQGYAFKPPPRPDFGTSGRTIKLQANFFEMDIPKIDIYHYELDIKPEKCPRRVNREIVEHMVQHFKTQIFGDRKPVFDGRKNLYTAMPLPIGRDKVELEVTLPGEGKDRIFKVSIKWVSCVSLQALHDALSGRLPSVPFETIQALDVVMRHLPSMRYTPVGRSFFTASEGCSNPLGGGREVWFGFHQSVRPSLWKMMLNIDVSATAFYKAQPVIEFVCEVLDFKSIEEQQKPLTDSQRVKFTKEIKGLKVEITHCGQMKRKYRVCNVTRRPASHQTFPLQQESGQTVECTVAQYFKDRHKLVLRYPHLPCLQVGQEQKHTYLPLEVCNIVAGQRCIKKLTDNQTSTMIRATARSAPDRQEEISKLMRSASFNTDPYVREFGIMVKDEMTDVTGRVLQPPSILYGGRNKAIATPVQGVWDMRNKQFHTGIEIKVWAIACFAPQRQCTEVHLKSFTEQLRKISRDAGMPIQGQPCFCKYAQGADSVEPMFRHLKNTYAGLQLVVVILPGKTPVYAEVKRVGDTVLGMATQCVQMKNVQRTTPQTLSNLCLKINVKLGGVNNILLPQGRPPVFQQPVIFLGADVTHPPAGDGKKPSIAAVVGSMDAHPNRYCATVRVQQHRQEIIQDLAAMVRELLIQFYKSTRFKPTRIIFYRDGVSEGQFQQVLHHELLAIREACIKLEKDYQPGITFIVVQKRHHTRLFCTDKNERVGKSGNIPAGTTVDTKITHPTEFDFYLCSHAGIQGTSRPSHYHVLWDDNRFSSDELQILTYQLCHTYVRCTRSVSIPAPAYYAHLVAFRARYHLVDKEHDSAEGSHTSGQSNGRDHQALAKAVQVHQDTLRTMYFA",
  "assay": "SPR; Biacore T200; His-AGO2 immobilised on a CM5 chip by amine coupling (~7000 RU); peptides 20 to 1280 nM in HBS-P (10 mM HEPES, 150 mM NaCl, 0.005% T20, pH 7.4), 30 µL/min; Langmuir 1:1 model",
  "data": [
    {"substance": "negative control peptide (CP) as used in the SPR", "values": [
      {"measurement": "Kd", "value": 107, "unit": "µM"}
    ]}
  ]
}
